Measured values reported in patent US20230365662A1.
Substitutions are numbered along the chain they refer to. Names may count otherwise. “And” between values parts separate entries of the source, which are not always exact repeats. Equal entries are not always repeated.

B1: KB001 mouse Fab VL L34V (Fab, V domains shown)
VH: EVQLKQSGPGLVAPSQSLSITCTVSGFSLSIYSVHWVRQPPGKGLEWLGMIWGGGSSDYNSALKSRLSISKDNSKSQVFLKMNSLQTDDTAMYYCARNGNFYAMDYWGQGTSVTVSS
VL: QIVLTQSPAIMSASLGERVTMTCTASSSVSSSFVHWYQQKPGSSPQLWIYSTSNLASGVPARFSGSGSGTSYSLTISSMEAEDAATYYCHQYHHSPYIYTFGGGTKLEIK
B2: KB001 mouse Fab VL L34I (Fab, V domains shown)
VH: B1 VH
VL: B1 VL with V34I
B3: KB001 mouse Fab VL S53A (Fab, V domains shown)
VH: B1 VH
VL: B1 VL with V34L, S53A
B4: KB001 mouse Fab VL L55V (Fab, V domains shown)
VH: B1 VH
VL: B1 VL with V34L, L55V
B5: KB001 mouse Fab VL S53C (Fab, V domains shown)
VH: B1 VH
VL: B1 VL with V34L, S53C
B6: KB001 mouse Fab VL N54E (Fab, V domains shown)
VH: B1 VH
VL: B1 VL with V34L, N54E
B7: KB001 mouse Fab VL T52M (Fab, V domains shown)
VH: B1 VH
VL: B1 VL with V34L, T52M
B8: KB001 mouse Fab VL N54K (Fab, V domains shown)
VH: B1 VH
VL: B1 VL with V34L, N54K
B9: KB001 mouse Fab VL T52K (Fab, V domains shown)
VH: B1 VH
VL: B1 VL with V34L, T52K
B10: KB001 mouse Fab VL N54F (Fab, V domains shown)
VH: B1 VH
VL: B1 VL with V34L, N54F
B11: KB001 mouse Fab VL S53Y (Fab, V domains shown)
VH: B1 VH
VL: B1 VL with V34L, S53Y
B12: KB001 mouse Fab VL L55T (Fab, V domains shown)
VH: B1 VH
VL: B1 VL with V34L, L55T
B13: KB001 mouse Fab VL T100K (Fab, V domains shown)
VH: B1 VH
VL: B1 VL with V34L, T100K
B14: KB001 mouse Fab VL S53L (Fab, V domains shown)
VH: B1 VH
VL: B1 VL with V34L, S53L
B15: KB001 mouse Fab VL T100D (Fab, V domains shown)
VH: B1 VH
VL: B1 VL with V34L, T100D
B16: KB001 mouse Fab VL S53W (Fab, V domains shown)
VH: B1 VH
VL: B1 VL with V34L, S53W
B17: KB001 mouse Fab VL N54I (Fab, V domains shown)
VH: B1 VH
VL: B1 VL with V34L, N54I
B18: KB001 mouse Fab VL T52R (Fab, V domains shown)
VH: B1 VH
VL: B1 VL with V34L, T52R
B19: KB001 mouse Fab VL S53D (Fab, V domains shown)
VH: B1 VH
VL: B1 VL with V34L, S53D
B20: KB001 mouse Fab VL N54D (Fab, V domains shown)
VH: B1 VH
VL: B1 VL with V34L, N54D
B21: KB001 mouse Fab VL L55S (Fab, V domains shown)
VH: B1 VH
VL: B1 VL with V34L, L55S
B22: KB001 mouse Fab VL N54L (Fab, V domains shown)
VH: B1 VH
VL: B1 VL with V34L, N54L
B23: KB001 mouse Fab VL L55K (Fab, V domains shown)
VH: B1 VH
VL: B1 VL with V34L, L55K
B24: KB001 mouse Fab VL T52L (Fab, V domains shown)
VH: B1 VH
VL: B1 VL with V34L, T52L
B25: KB001 mouse Fab VL N54W (Fab, V domains shown)
VH: B1 VH
VL: B1 VL with V34L, N54W
B26: KB001 mouse Fab VL S53V (Fab, V domains shown)
VH: B1 VH
VL: B1 VL with V34L, S53V
B27: KB001 mouse Fab VL S53E (Fab, V domains shown)
VH: B1 VH
VL: B1 VL with V34L, S53E
B28: KB001 mouse Fab VL N54A (Fab, V domains shown)
VH: B1 VH
VL: B1 VL with V34L, N54A
B29: KB001 mouse Fab VL L55H (Fab, V domains shown)
VH: B1 VH
VL: B1 VL with V34L, L55H
B30: KB001 mouse Fab VL L34M (Fab, V domains shown)
VH: B1 VH
VL: B1 VL with V34M
B31: KB001 mouse Fab VL L55Q (Fab, V domains shown)
VH: B1 VH
VL: B1 VL with V34L, L55Q
B32: KB001 mouse Fab VL S53R (Fab, V domains shown)
VH: B1 VH
VL: B1 VL with V34L, S53R
B33: KB001 mouse Fab FASEBA VH S61D (Fab, V domains shown)
VH: B1 VH with S61D
VL: B1 VL with V34L
B34: KB001 mouse Fab FASEBA VH S30G (Fab, V domains shown)
VH: B1 VH with S30G
VL: B1 VL with V34L
B35: KB001 mouse Fab FASEBA VH S30E (Fab, V domains shown)
VH: B1 VH with S30E
VL: B1 VL with V34L
B36: KB001 mouse Fab FASEBA VH S30Y (Fab, V domains shown)
VH: B1 VH with S30Y
VL: B1 VL with V34L
B37: KB001 mouse Fab FASEBA VH S61Q (Fab, V domains shown)
VH: B1 VH with S61Q
VL: B1 VL with V34L
B38: KB001 mouse Fab FASEBA VH S30N (Fab, V domains shown)
VH: B1 VH with S30N
VL: B1 VL with V34L
B39: KB001 mouse Fab FASEBA VH S28E (Fab, V domains shown)
VH: B1 VH with S28E
VL: B1 VL with V34L
B40: KB001 mouse Fab FASEBA VH S28P (Fab, V domains shown)
VH: B1 VH with S28P
VL: B1 VL with V34L
B41: KB001 mouse Fab FASEBA VH S30A (Fab, V domains shown)
VH: B1 VH with S30A
VL: B1 VL with V34L

The binders below were run against HRgpA-6H (Porphyromonas gingivalis) (UniProt P28784) (assay: ELISA, FASEBA Fab on coated HRgpA-6H).

Binder | OD450nm | Ratio OD(Variant)/OD(WT)
B1 | 0.641 and 0.634 | 0.846 and 0.836
B2 | 0.67 | 0.884
B3 | 0.784 | 0.996
B4 | 0.706 | 0.901
B5 | 0.697 | 0.885
B6 | 0.744 and 0.74 | 0.95 and 0.944
B7 | 0.662 | 0.841
B8 | 0.727 | 0.928
B9 | 0.681 | 0.865
B10 | 0.765 | 0.976
B11 | 0.776 and 0.781 | 0.985 and 0.992
B12 | 0.727 | 0.928
B13 | 0.625 | 1.19
B14 | 0.639 and 0.636 | 0.811 and 0.808
B15 | 0.645 | 1.23
B16 | 0.727 | 0.923

Binder | OD450nm | Ratio OD(Variant)/OD(WT)
B17 | 0.755 and 0.772 and 0.754 | 0.964 and 0.985 and 0.962
B18 | 0.724 and 0.681 and 0.685 | 0.919 and 0.865 and 0.87
B19 | 0.775 | 0.984
B20 | 0.725 | 0.925
B21 | 0.672 | 0.858
B22 | 0.774 | 0.988
B23 | 0.769 | 0.981
B24 | 0.769 | 0.977
B25 | 0.646 | 0.825
B26 | 0.702 | 0.891
B27 | 0.766 | 0.973
B28 | 0.776 | 0.99
B29 | 0.695 and 0.731 | 0.887 and 0.933
B30 | 0.736 and 0.741 and 0.714 | 0.971 and 0.978 and 0.911
B31 | 0.711 and 0.692 and 0.684 | 0.907 and 0.883 and 0.873
B32 | 0.637 | 0.809

These binders were tested against HRgpA-6H (Porphyromonas gingivalis) (UniProt P28784) (assay: ELISA on coated HRgpA-6H).

Binder | Ratio OD(Variant)/OD(WT) | OD450nm
B33 | 1.14 and 1.11 (2×) and 0.956 | –
B34 | 1.06 and 1.02 | 0.533 and 0.515
B35 | 1.12 | 0.567
B36 | 1.05 and 0.967 | 0.53 and 0.488
B37 | 1.28 | 0.634
B38 | 1.12 and 1.11 | 0.565 and 0.56
B39 | 1.04 and 1.02 and 0.915 | 0.561 and 0.551 and 0.494
B40 | 1.01 and 0.837 and 0.952 | 0.545 and 0.452 and 0.514
B41 | 1.06 and 0.989 and 0.979 | 0.534 and 0.499 and 0.494
